Here are results for four substances from PMC8611056.

The target in assay [1] is vWF on calcium ionophore-activated HUVEC monolayers (human (endogenous in HUVEC)). Description: bacterial adhesion to cell monolayers (ELISA-type); ionophore-treated HUVEC monolayers incubated for 1 h with S. aureus SH1000 WT or isdB mutant (with or without 250 ng/well mAb 6D1 or isotype control), or with L. lactis with pNZ8037::isdB or empty vector.
In assay [2] the target is human von Willebrand factor (human) (UniProt P04275). Description: ELISA; competition: wells coated with 1 μg of vWF, 1 μg of IsdB with or without 10 μg/well of each vWF ligand; detected with anti-IsdB IgG; percent of control without competitor. For orientation: In an ELISA, binding on a coated surface is turned into a signal by an enzyme label.
Assay [3] concerns the target IsdB NEAT1 (aa residues 144-270) (S. aureus SH1000) (UniProt Q2FZF0). Description: SPR; Biacore X-100; 6xHis-IsdB proteins captured on Ni2+-NTA chip, A1 lacking the 6xHis tag as analyte (0.08 to 1.25 μM), single-cycle mode, 25 °C; heterogeneous ligand binding model (two ligand populations L1, L2); buffer PBS with 0.005% Tween 20 or HBS-EP+ (methods). (In general: In SPR one partner is held on a chip, and binding of the other changes the refractive index at the surface.)

Assay [4] concerns the target IsdB NEAT1-NEAT2 (aa residues 48-480) (S. aureus SH1000) (UniProt Q2FZF0). Described as above.
For assay [5], the target named is IsdB NEAT2 (aa residues 334-458) (S. aureus SH1000) (UniProt Q2FZF0). The assay is described as above.

“IsdB on S. aureus SH1000 cells (from UniProt Q2FZF0 41-613) (natural protein)”: the adhesion of wild-type cells over isdB mutant cells in assay [1] came to 3 times.
For the substance collagen type IV (complex), the reduction of IsdB NEAT1-NEAT2 binding to vWF at 10 μg/well in assay [2] stood at 50%.
In turn, collagen type VI (complex) returned a reduction of IsdB NEAT1-NEAT2 binding to vWF at 10 μg/well in assay [2] of 50%.
For “recombinant vWF A1 domain lacking the 6xHis tag (domain or fragment)”, the KD1 (ligand population L1) stood at 53 µM in assay [3], 1.7 µM in assay [4] and 0.3 µM in assay [5]. The KD2 (ligand population L2) in assay [3] stood at 5.3 µM; in assay [4], 0.9 µM; in assay [5], 0.4 µM.
